Patent publication US20250145706A1

Experiments:
[1] = biological target: IGHV4-39/IGLV3-21^R110 BCR on CLL B cells (PBMCs) of a patient (human); assay: flow cytometry; PBMCs of a CLL patient with IGHV4-39/IGLV3-21^R110 BCR, co-stained with anti-CD19 VioBright515
[2] = biological target: IGHV3-21/IGLV3-21^R110 BCR, membrane-bound on murine TKO cells (human); assay: flow cytometry; cell mix A (1:1 IGHV3-21/IGLV3-21^R110 BCR TKO cells and BCR-negative TKO cells), co-stained with anti-IgM-PE
[3] = biological target: IGHV3-21/IGLV3-21^G110 BCR, membrane-bound on murine TKO cells (human); assay: flow cytometry; cell mix B (1:1 IGHV3-21/IGLV3-21^G110 BCR TKO cells and BCR-negative TKO cells), co-stained with anti-IgM-PE
[4] = biological target: BCRs of a CLL patient, which does not harbor IGLV3-21^R110 (human); assay: flow cytometry; PBMCs of a patient with non-IGLV3-21^R110 CLL, co-stained with anti-CD19 (axis label anti-CD19 FITC)

% of gated cells in Q5, anti-CD19 positive and mAb01-01-APC negative [1]: 0.29%
% of gated cells in Q6, anti-CD19 positive and mAb01-01-APC positive [1]: 98.7%
% of gated cells (Gate P1) in Q1, anti-IgM-PE positive and mAb01-01-APC negative [2]: 2.78%
% of gated cells (Gate P1) in Q2, anti-IgM-PE positive and mAb01-01-APC positive [2]: 45.5%
% of gated cells (Gate P1) in Q1, anti-IgM-PE positive and mAb01-01-APC negative [3]: 42.2%
% of gated cells (Gate P1) in Q2, anti-IgM-PE positive and mAb01-01-APC positive [3]: 1.11%
% of gated cells in Q5, anti-CD19 positive and mAb01-01-APC negative [4]: 98.8%
% of gated cells in Q6, anti-CD19 positive and mAb01-01-APC positive [4]: 0.28%
B1: mAb01-01 (antibody, V domains shown)
VH: QVQLQQSGPGLVQPSQSLSITCTVSGFSLTSYGIHWVRQSPGKGLEWLGVIWRGGGTDSNAAFMSRLSITKDNSKSQVFFKMNSLQADDTAIYYCARSRYDEEESMNYWGQGTSVTVSS
VL: QIVLTQSPASLSASVGETVTITCRASGNIHSYLAWYQQKQGKSPQLLVYNAKTLADGVPSRFSGSGSGTQYSLKINSLQPEDFGSYYCQHFWNTPPTFGAGTKLELKR
